Reference: patent publication US20090252717A1, “Compositions and Methods for Treating Polyglutamine-Expansion Neurodegenerative Diseases” (priority 2006, published 2009)

Experiments:
fast axonal transport = experiment: Vesicle motility assay in isolated squid axoplasm, perfusion of recombinant protein alone; format: cell-based, squid Loligo pealeii
Description: Recombinant Polypeptides. Wild-type androgen receptor and polyQ-AR polypeptides were produced by in vitro transcription/translation (TNT T7-Coupled Reticulocyte Lysate System; Promega, Madison, Wis.) according to manufacturer's protocols. Typically, 1.8 μg of plasmid was transcribed in 50 μl reaction mix. To assess protein levels, parallel reactions were performed incorporating ^35S-labeled methionine (Amersham) or quantitative immunoblots were performed. Protein concentrations were typically 0.2-0.5 nM. In vitro translated androgen receptor has been characterized and shown to be functional (Kuiper, et al. (1993) Biochem. J. 296(Pt 1):161-7). In vitro translation products were briefly centrifuged to eliminate translation machinery, and supernatants frozen in liquid N2 until used.
Genes encoding human wild-type Huntingtin (Htt) (i.e., Q20, residues 1-548; Szebenyi, et al. (2003) supra) and polyQ-expanded Htt (i.e., Q46, residues 1-949; Qin, et al. (2004) J. Neurosci. 24(1):269-81) were cloned into the pcDNA.3 vector and produced by in vitro transcription/translation as described for the androgen receptor. Alternatively, shorter constructs (Htt exon1) were expressed in E. coli as GST-tagged proteins.
Squid Axoplasm. Isolated squid axoplasm represents a unique experimental system to evaluate axonal-specific effects and pathogenic mechanisms. This model was instrumental in the original discovery of kinesin-1 (Brady (1985) Nature 317:73-75, novel pathways for fast axonal transport (Morfini, et al. (2002) supra; Morfini, et al. (2004) supra), and axonal-specific phosphorylation events (Grant & Pant (2000) J. Neurocytol. 29:843-72). Bidirectional membrane-bound organelle movements are observed with properties unchanged from intact axons for hours after removal of plasma membrane (Brady, et al. (1982) Science 218:1129-1131). Video-enhanced microscopic techniques allow quantitative analysis of membrane-bound organelle movement in fast axonal transport. Typical kinesin-dependent transport rates are 1.5-2.0 μm/s, whereas retrograde, cytoplasmic dynein-dependent rates are 1-1.3 μm/s in perfused axoplasms. These rates are maintained with little (<10%) or no reduction for >1 hour after perfusion with control buffer (Brady, et al. (1982) supra). The lack of permeability barriers allows perfusion of the axoplasm with a variety of effector molecules at known concentrations. Effectors of interest include nucleotides, pharmacological inhibitors, recombinant polypeptides, and antibodies. Typically, 6-His, Hemagglutinin, Myc and GST-tagged recombinant proteins are either expressed in bacteria or in vitro translated, purified and perfused (Szebenyi, et al. (2003) supra; Morfini, et al. (2002) supra).
Motility Studies in Isolated Axoplasm. Axoplasm was extruded from giant axons of the squid Loligo pealeii (Marine Biological Laboratory, Woods Hole, Mass.) as described (Brady, et al. (1985) Cell Motil. 5:81-101). Axons were 400-600 μm in diameter and provided ≈5 μl of axoplasm. […] Preparations were analyzed on a ZEISS AXIOMAT with a 100×, 1.3 n.a. objective, and DIC optics. […] Organelle velocities were measured with a Photonics Microscopy C2117 video manipulator (Hamamatsu).

kinesin-1 heavy chain = target: T1, kinesin-1 heavy chain (Rattus norvegicus, UniProt P56536); experiment: Binding of kinesin-1 to microtubules after JNK3 treatment; format: biochemical; conditions: kinesin-1 heavy chain treated with JNK3 kinase
T1 construct: coding for the first 584 amino acids of rat KHC (KHC-584); made in house; host or cells: E. coli
T1 sequence (P56536 1-584 limits assumed): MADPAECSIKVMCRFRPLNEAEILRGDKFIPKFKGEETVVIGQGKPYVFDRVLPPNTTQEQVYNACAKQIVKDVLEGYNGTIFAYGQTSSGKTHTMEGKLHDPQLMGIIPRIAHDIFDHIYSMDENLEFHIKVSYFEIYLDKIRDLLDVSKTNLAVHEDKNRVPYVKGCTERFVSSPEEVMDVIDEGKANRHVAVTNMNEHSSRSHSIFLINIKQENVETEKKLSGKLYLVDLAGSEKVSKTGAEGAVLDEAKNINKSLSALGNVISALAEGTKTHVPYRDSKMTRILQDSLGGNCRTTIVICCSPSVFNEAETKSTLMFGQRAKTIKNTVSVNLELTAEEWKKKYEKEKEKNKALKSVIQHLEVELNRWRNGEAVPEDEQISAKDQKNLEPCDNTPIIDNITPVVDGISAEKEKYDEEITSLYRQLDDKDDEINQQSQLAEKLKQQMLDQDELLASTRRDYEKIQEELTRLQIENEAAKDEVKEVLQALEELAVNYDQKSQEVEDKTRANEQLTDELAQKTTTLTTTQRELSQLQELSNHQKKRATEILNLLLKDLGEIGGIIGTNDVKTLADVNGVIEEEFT
Description: Microtubule Binding Assays. Microtubule binding assays was performed according to established methods (Stenoien & Brady (1997) supra). Briefly, three 70% confluent 100-mm culture dishes containing either wild-type or 902-6 SH-SY5Y cells were homogenized with 500 μl of HEM buffer (50 mM HEPES, 1 mM EGTA, 2 mM MgSO4, 1% TRITON X-100, pH 7.2, 1 μM staurosporine, 1 μM K252a, 50 nM okadaic acid and 1/100 mammalian protease inhibitor cocktail (Sigma) at 4° C. Lysates were centrifuged at 50000 rpm for 5 minutes at 4° C.
Six hundred μg of total protein from clarified wild-type or 902-6 SH-SY5Y cells were incubated with 0.2 mg of TAXOL-stabilized microtubules (Cytoskeleton, Denver, Colo.) and 2.5 mM AMP-PNP for 30 minutes at 37° C. Samples were centrifuged for 25 minutes at 50000 rpm (4° C.) over a cushion of 20% sucrose in HEM plus 20 μM TAXOL. Pellets and supernatants were collected and the amount of kinesin in each fraction was assayed by immunoblot with anti-kinesin monoclonal antibodies.
In Vitro Kinesin-1 Phosphorylation. A recombinant cDNA fragment coding for the first 584 amino acids of rat KHC (KHC-584) was subcloned into pET expression vector, expressed in E. coli and purified by nickel affinity chromatography (Qiagen, Valencia, Calif.). […]

[1] = perfused, concentration not given

B1: JNK3: recombinant, active JNK3 protein (protein, UniProt P53779 1-464, looked up)
Mitogen-activated protein …: MSLHFLYYCSEPTLDVKIAFCQGFDKQVDVSYIAKHYNMSKSKVDNQFYSVEVGDSTFTVLKRYQNLKPIGSGAQGIVCAAYDAVLDRNVAIKKLSRPFQNQTHAKRAYRELVLMKCVNHKNIISLLNVFTPQKTLEEFQDVYLVMELMDANLCQVIQMELDHERMSYLLYQMLCGIKHLHSAGIIHRDLKPSNIVVKSDCTLKILDFGLARTAGTSFMMTPYVVTRYYRAPEVILGMGYKENVDIWSVGCIMGEMVRHKILFPGRDYIDQWNKVIEQLGTPCPEFMKKLQPTVRNYVENRPKYAGLTFPKLFPDSLFPADSEHNKLKASQARDLLSKMLVIDPAKRISVDDALQHPYINVWYDPAEVEAPPPQIYDKQLDEREHTIEEWKELIYKEVMNSEEKTKNGVVKGQPSPSGAAVNSSESLPPSSSVNDISSMSTDQTLASDTDSSLEASAGPLGCCR
mean rate for anterograde fast axonal transport (fast axonal transport; [1]): 0.9 µM/s | retrograde, cytoplasmic dynein-dependent fast axonal transport mean rate (fast axonal transport; [1]): 1.25 µM/s | effect on binding of kinesin-1 to microtubules (kinesin-1 heavy chain): inhibits the binding of kinesin-1 to microtubules

B2: wild-type Htt: human wild-type Huntingtin (Q20, residues 1-548) produced by in vitro transcription/translation (protein, UniProt P42858 1-548, looked up, fragment)
chain: MATLEKLMKAFESLKSFQQQQQQQQQQQQQQQQQQQQQPPPPPPPPPPPQLPQPPPQAQPLLPQPQPPPPPPPPPPGPAVAEEPLHRPKKELSATKKDRVNHCLTICENIVAQSVRNSPEFQKLLGIAMELFLLCSDDAESDVRMVADECLNKVIKALMDSNLPRLQLELYKEIKKNGAPRSLRAALWRFAELAHLVRPQKCRPYLVNLLPCLTRTSKRPEESVQETLAAAVPKIMASFGNFANDNEIKVLLKAFIANLKSSSPTIRRTAAGSAVSICQHSRRTQYFYSWLLNVLLGLLVPVEDEHSTLLILGVLLTLRYLVPLLQQQVKDTSLKGSFGVTRKEMEVSPSAEQLVQVYELTLHHTQHQDHNVVTGALELLQQLFRTPPPELLQTLTAVGGIGQLTAAKEESGGRSRSGSIVELIAGGGSSCSPVLSRKQKGKVLLGEEEALEDDSESRSDVSSSALTASVKDEISGELAASSGVSTPGSAGHDIITEQPRSQHTLQADSVDLASCDLTSSATDGDEEDILSHSSSQVSAVPSDPAMDL
modifications: Q20
notes: human wild-type Huntingtin (Q20, residues 1-548) produced by in vitro transcription/translation
effect on fast axonal transport (fast axonal transport; perfused alone): showed no effect on either direction of fast axonal transport

B3: JNK1: recombinant, active JNK1 protein (protein, UniProt P45983 1-427, looked up)
Mitogen-activated protein …: MSRSKRDNNFYSVEIGDSTFTVLKRYQNLKPIGSGAQGIVCAAYDAILERNVAIKKLSRPFQNQTHAKRAYRELVLMKCVNHKNIIGLLNVFTPQKSLEEFQDVYIVMELMDANLCQVIQMELDHERMSYLLYQMLCGIKHLHSAGIIHRDLKPSNIVVKSDCTLKILDFGLARTAGTSFMMTPYVVTRYYRAPEVILGMGYKENVDLWSVGCIMGEMVCHKILFPGRDYIDQWNKVIEQLGTPCPEFMKKLQPTVRTYVENRPKYAGYSFEKLFPDVLFPADSEHNKLKASQARDLLSKMLVIDASKRISVDEALQHPYINVWYDPSEAEAPPPKIPDKQLDEREHTIEEWKELIYKEVMDLEERTKNGVIRGQPSPLGAAVINGSQHPSSSSSVNDVSSMSTDPTLASDTDSSLEAAAGPLGCCR
effect on fast axonal transport (fast axonal transport; perfused at 200 nM): did not show any effect on either direction of fast axonal transport

B4: polyQ-Htt: polyQ-expanded Huntingtin (Q46, residues 1-949) produced by in vitro transcription/translation (protein, UniProt P42858 1-949, looked up, fragment)
chain: MATLEKLMKAFESLKSFQQQQQQQQQQQQQQQQQQQQQPPPPPPPPPPPQLPQPPPQAQPLLPQPQPPPPPPPPPPGPAVAEEPLHRPKKELSATKKDRVNHCLTICENIVAQSVRNSPEFQKLLGIAMELFLLCSDDAESDVRMVADECLNKVIKALMDSNLPRLQLELYKEIKKNGAPRSLRAALWRFAELAHLVRPQKCRPYLVNLLPCLTRTSKRPEESVQETLAAAVPKIMASFGNFANDNEIKVLLKAFIANLKSSSPTIRRTAAGSAVSICQHSRRTQYFYSWLLNVLLGLLVPVEDEHSTLLILGVLLTLRYLVPLLQQQVKDTSLKGSFGVTRKEMEVSPSAEQLVQVYELTLHHTQHQDHNVVTGALELLQQLFRTPPPELLQTLTAVGGIGQLTAAKEESGGRSRSGSIVELIAGGGSSCSPVLSRKQKGKVLLGEEEALEDDSESRSDVSSSALTASVKDEISGELAASSGVSTPGSAGHDIITEQPRSQHTLQADSVDLASCDLTSSATDGDEEDILSHSSSQVSAVPSDPAMDLNDGTQASSPISDSSQTTTEGPDSAVTPSDSSEIVLDGTDNQYLGLQIGQPQDEDEEATGILPDEASEAFRNSSMALQQAHLLKNMSHCRQPSDSSVDKFVLRDEATEPGDQENKPCRIKGDIGQSTDDDSAPLVHCVRLLSASFLLTGGKNVLVPDRDVRVSVKALALSCVGAAVALHPESFFSKLYKVPLDTTEYPEEQYVSDILNYIDHGDPQVRGATAILCGTLICSILSRSRFHVGDWMGTIRTLTGNTFSLADCIPLLRKTLKDESSVTCKLACTAVRNCVMSLCSSSYSELGLQLIIDVLTLRNSSYWLVRTELLETLAEIDFRLVSFLEAKAENLHRGAHHYTGLLKLQERVLNNVVIHLLGDEDPRVRHVAAASLIRLVPKLFYKCDQGQADP
modifications: polyQ expanded to Q46
notes: polyQ-expanded Huntingtin (Q46, residues 1-949) produced by in vitro transcription/translation
effect on fast axonal transport (fast axonal transport; perfused alone): striking inhibition of fast axonal transport rates
